Laboratory results taken from patent US20240043566A1 (SUZHOU TRANSCENTA THERAPEUTICS, published 2024).

Molecular target: T1, human PD-L1-Fc (Sino Biological, 70110-D02H) (human, UniProt Q9NZQ7 19-239)
T1 construct: also called hPD-L1-Fc; not shown: Fc part
Assay: BLI, PD-L1-Fc loaded, scFv in solution

T1 sequence (Q9NZQ7 19-239 limits assumed, stated change not applied): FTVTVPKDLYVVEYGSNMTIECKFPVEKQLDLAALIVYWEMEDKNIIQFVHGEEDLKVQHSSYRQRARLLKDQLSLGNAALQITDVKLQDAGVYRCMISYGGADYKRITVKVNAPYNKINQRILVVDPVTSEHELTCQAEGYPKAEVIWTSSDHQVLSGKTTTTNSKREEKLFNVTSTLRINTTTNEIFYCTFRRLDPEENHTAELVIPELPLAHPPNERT

Fold increase (over L-CDR1-WT) [fold] | Binder
4.08 | 4B6 scFv variant L-CDR1-1 (scFv, also called 4B6-L-CDR1-1) scFv: DIQMTQSPSSLSASVGDRVTITCKASQNVGAIVAWYQQKPGKAPKLLIYSASNRYTGVPSRFSGSGSGTDFTLTISSLQPEDIATYYCQQYSNYPTFGQGTKLEIKGGGGSGGGGSGGGGSQVQLVQSGAEVKKPGASVKVSCKASGYVFTDYYMNWVRQAPGQSLEWMGDINPNNAGTSYNHKFKGRVTVTVDKSISTAYMELSRLRSDDTAVYYCVKWGDGPFAYWGQGTLVTVSS
4.96 | 4B6 scFv variant L-CDR1-2 (scFv, also called 4B6-L-CDR1-2) scFv: DIQMTQSPSSLSASVGDRVTITCKASQNVPAAVAWYQQKPGKAPKLLIYSASNRYTGVPSRFSGSGSGTDFTLTISSLQPEDIATYYCQQYSNYPTFGQGTKLEIKGGGGSGGGGSGGGGSQVQLVQSGAEVKKPGASVKVSCKASGYVFTDYYMNWVRQAPGQSLEWMGDINPNNAGTSYNHKFKGRVTVTVDKSISTAYMELSRLRSDDTAVYYCVKWGDGPFAYWGQGTLVTVSS
10.1 | 4B6 scFv variant L-CDR1-3 (scFv, also called 4B6-L-CDR1-3) scFv: DIQMTQSPSSLSASVGDRVTITCKASQNVKGAVAWYQQKPGKAPKLLIYSASNRYTGVPSRFSGSGSGTDFTLTISSLQPEDIATYYCQQYSNYPTFGQGTKLEIKGGGGSGGGGSGGGGSQVQLVQSGAEVKKPGASVKVSCKASGYVFTDYYMNWVRQAPGQSLEWMGDINPNNAGTSYNHKFKGRVTVTVDKSISTAYMELSRLRSDDTAVYYCVKWGDGPFAYWGQGTLVTVSS
